# Laboratory results reported in patent US20210363269A1 (ALX ONCOLOGY, published 2021).
# T1: C57BL/6 mouse SIRP-α D1 domain (mouse (C57BL/6 strain), UniProt P97797 32-148)
# T1 sequence: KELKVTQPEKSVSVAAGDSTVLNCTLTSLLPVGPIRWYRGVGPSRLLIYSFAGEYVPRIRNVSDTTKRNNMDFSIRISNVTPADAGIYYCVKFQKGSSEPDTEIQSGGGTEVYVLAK
# T2: NOD mouse SIRP-α D1 domain (mouse (NOD strain))
# T2 chain: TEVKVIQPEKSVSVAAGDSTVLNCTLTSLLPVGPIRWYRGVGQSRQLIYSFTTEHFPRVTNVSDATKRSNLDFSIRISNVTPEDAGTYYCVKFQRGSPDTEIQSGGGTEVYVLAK
# T3: cynomolgus SIRP-α D1 domain (cyno2) (cynomolgus monkey, UniProt Q5TFQ8 30-148 (human entry), limits assumed)
# T3 chain: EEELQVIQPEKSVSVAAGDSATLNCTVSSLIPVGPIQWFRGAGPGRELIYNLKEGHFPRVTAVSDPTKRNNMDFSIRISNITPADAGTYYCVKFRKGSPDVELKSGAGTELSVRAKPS
# T4: mouse 129 SIRP-α D1 domain (mouse (129 strain), UniProt P97797 32-150)
# T4 construct: also called m129
# T4 chain: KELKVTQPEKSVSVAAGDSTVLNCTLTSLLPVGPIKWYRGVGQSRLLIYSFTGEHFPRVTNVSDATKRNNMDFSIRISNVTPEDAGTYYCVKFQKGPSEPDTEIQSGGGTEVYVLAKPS
# T5: cynomolgus SIRP-α D1 domain (cyno1) (cynomolgus monkey, UniProt Q5TFQ8 30-148 (human entry), limits assumed)
# T5 chain: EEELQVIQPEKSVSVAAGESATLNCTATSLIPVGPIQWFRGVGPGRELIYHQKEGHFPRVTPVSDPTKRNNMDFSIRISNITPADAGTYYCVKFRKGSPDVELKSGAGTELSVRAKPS
# T6: high affinity SIRP-α D1 variant CV1-3
# T6 chain: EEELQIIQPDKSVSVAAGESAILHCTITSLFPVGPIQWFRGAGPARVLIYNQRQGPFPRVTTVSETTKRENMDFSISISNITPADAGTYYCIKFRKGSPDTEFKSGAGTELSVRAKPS
# Tests used:
# [1] = target: T1, C57BL/6 mouse SIRP-α D1 domain; test: SPR
# Procedure, shortened: (§1)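 Antibody clones in scFv-Fc format were captured from pre-filtered culture media onto anti-human IgG Fc, amine-coupled (about 4000 RU) on a GLC chip of a ProteOn XPR36 instrument. SIRP analytes were flowed in PBS pH 7.4 with 0.01% Tween-20 at 25° C. Data were double-referenced against interspot and buffer-blank responses. Dissociation rate constants (koff) were derived by fitting a 1:1 Langmuir model.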
# [2] = target: T2, NOD mouse SIRP-α D1 domain; test: SPR
# Procedure, shortened: as §1
# [3] = target: T3, cynomolgus SIRP-α D1 domain (cyno2); test: SPR
# Procedure, shortened: as §1
# [4] = target: T4, mouse 129 SIRP-α D1 domain; test: SPR
# Procedure, shortened: as §1
# [5] = target: T5, cynomolgus SIRP-α D1 domain (cyno1); test: SPR
# Procedure, shortened: as §1
# [6] = target: T6, high affinity SIRP-α D1 variant CV1-3; test: SPR, Langmuir fit
# Procedure, shortened: as §1
# [7] = target: T7, human SIRP-α v2 D1 domain (human); test: SPR
# T7 construct: also called human v2
# Procedure, shortened: as §1
# [8] = target: T8, human SIRPβ isoform 1 (human, UniProt O00241 30-148); test: SPR
# T8 construct: also called SIRPb; sirpb1
# T8 sequence (O00241 30-148 limits assumed): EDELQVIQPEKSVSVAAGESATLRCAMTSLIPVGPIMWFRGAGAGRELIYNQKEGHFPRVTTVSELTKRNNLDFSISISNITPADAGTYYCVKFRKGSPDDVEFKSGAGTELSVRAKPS
# Procedure, shortened: as §1
# [9] = target: T9, human SIRP-α v1 D1 domain (human, UniProt P78324 31-149); test: SPR, Langmuir fit
# T9 construct: also called human v1
# T9 sequence (P78324 31-149 limits assumed): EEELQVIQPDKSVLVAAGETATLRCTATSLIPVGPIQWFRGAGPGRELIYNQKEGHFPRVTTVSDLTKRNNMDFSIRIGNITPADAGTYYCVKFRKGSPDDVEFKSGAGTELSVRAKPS
# Procedure, shortened: as §1
# [10] = target: T3, cynomolgus SIRP-α D1 domain (cyno2); test: SPR, Langmuir fit
# Procedure, shortened: as §1
# [11] = target: T5, cynomolgus SIRP-α D1 domain (cyno1); test: SPR, Langmuir fit
# Procedure, shortened: as §1
Binder,binding result [1],binding result [2],binding result [3],binding result [4],binding result [5],koff [6] [s⁻¹],binding result [7],binding result [8],koff [9] [s⁻¹],koff [10] [s⁻¹],koff [11] [s⁻¹]
"S45 (scFv, V domains shown, also called clone 45; scFv-Fc form of AB45) VH: AVTLDESGGGLQTPGGALSLVCKASGFTFSSYAMGWVRQAPGKGLEWVAGIDDDGSTANYGPAVKGRATISRDNGQSTVRLQLNNPRAEDSGTYFCAKASVTGWSAHISGRLDTWGHGTEVIVSS VL: ALTQPASVSANPGETVKITCSGGGIYYYGWYQQKSPGSAPVTLIYENDKRPSDIPSRFSGSTSGSTNTFTITGVQAEDEAVYYCGGYDSNTTSGIFGAGTTLTVL",no binding (tested: Koff > 5 × 10^3 (legend)),no binding (tested: Koff > 5 × 10^3 (legend)),no binding (tested: Koff > 5 × 10^3 (legend)),no binding (tested: Koff > 5 × 10^3 (legend)),no binding (tested: Koff > 5 × 10^3 (legend)),4.76e-05,–,–,–,–,–
"S194 (scFv, V domains shown) VH: DVQLVESGGGVVRPGESLRLSCAASGFTFRNYGMSWVRQAPGEGLEWVSASSGSGSTYYADSVKGRFTISRDNSKNTLYLQMNSLRAEDTAIYYCAKVTWNNFFDYWGLGTLVTVSS VL: EIVLAQSPDTLSVSPGERATLTCRASQDVAGKLAWYQQKPGQAPRLLIHATSSRADGIPARFSGSGSGTEFTLTITGLQSEDFAVYYCQQHYDWSPLTFGGGTKVEIK",no binding (tested: Koff > 5 × 10^3 (legend)),–,–,–,–,0.00111,no binding (tested: Koff > 5 × 10^3 (legend)),no binding (tested: Koff > 5 × 10^3 (legend)),0.00117,0.00111,0.00131
